Test results as given in patent US20110312897.

Assays:
[1] = target: C-terminally 6xHIS tagged, full-length recombinant histone H3
[2] = target: T1, H3 15-31 peptide, K18 acetyl
T1 chain: APRKQLATKAARKSAPA

[3] = target: T2, H3 15-31 peptide, K18ac+K23ac
T2 chain: APRKQLATKAARKSAPA

[4] = target: T3, H3 15-31 peptide, K23 acetyl
T3 chain: APRKQLATKAARKSAPA

H3 15-31 peptide, K27me2 = target: T4, H3 15-31 peptide, K27me2
T4 chain: APRKQLATKAARKSAPA

[5] = target: rH3 pan-acetylated with acetic anhydride

B1: recombinant mouse Cathepsin L (R&D Systems, # 1515-CY-010) (protein)
chain: TPKFDQTFSAEWHQWKSTHRRLYGTNEEEWRRAIWEKNMRMIQLHNGEYSNGQHGFSMEMNAFGDMTNEEFRQVVNGYRHQKHKKGRLFQEPLMLKIPKSVDWREKGCVTPVKNQGQCGSCWAFSASGCLEGQMFLKTGKLISLSEQNLVDCSHAQGNQGCNGGLMDFAFQYIKENGGLDSEESYPYEAKDGSCKYRAEFAVANDTGFVDIPQQEKALMKAVATVGPISVAMDASHPSLQFYSSGIYYEPNCSSKNLDHGVLLVGYGYEGTDSNKNKYWLVKNSWGSEWGMEGYIKIAKDRDNHCGLATAASYPVVN
With B1 the “H3 cleavage assay (immunoblot with HIS-HRP and H3.cs1 antibodies; mass spectrometry)” value [1] was “recombinant mouse Cathepsin L was able to cleave recombinant histone H3 at both pH 5.5 and pH 7.4”, the “H3 cleavage assay with pre-activated enzyme, immunoblot with HIS and H3.cs1 antibodies” value [1] was “pre-activated Cathepsin L cleaves rH3-HIS robustly and produces a pattern that is similar to that observed in vivo” and the “ELISA with the H3cs.1 antibody of the cleavage product, against the unmodified H3 15-31 peptide” value [2] was “acetylation at K18 (blue) also increases this activity”. For the same protein, the “ELISA with the H3cs.1 antibody of the cleavage product” value [3] was “the K23ac peptide shows very little cleavage activity at H3cs.1, both alone (green) and in combination with K18ac (black)”, the “ELISA with the H3cs.1 antibody of the cleavage product” value [4] was “the K23ac peptide shows very little cleavage activity at H3cs.1, both alone (green) and in combination with K18ac (black)” and the “ELISA with the H3cs.1 antibody of the cleavage product, against the unmodified H3 15-31 peptide” value (H3 15-31 peptide, K27me2) was “K27me2 (magenta) strongly increases the ability of Cathepsin L to cleave at H3cs.1 as compared to the matched unmodified H3 15-31 peptide”. For the same protein, the “H3 cleavage assay, immunoblot (substrate 3 against unmodified substrate 1)” value [5] was “the acetylation of lysine residues greatly reduced cleavage of H3 by rCathepsin L at both pH 7.5 and 5.5” and the “H3 cleavage assay, immunoblot (substrate 2 against unmodified substrate 1)” value (rH3-HIS+K27me2) was “K27me2 increases H3 cleavage”.
